Experiment: label from the status in PepcDB records

Sequence	protein production
MTRLIQAIFILGFAAFVACTPKSAKSFAKAEVQYKQAEYQHAIENYQQSLSEGGDVAQCNYYIAESYRRSNRIQEAEPFYKKAIEAGIKDEEAHFFYANALKSVGNYEGAATQYKQYIKTGSNFDYINRAKKELENLKALQEVVEKETYYKVENIGQINSPEAEYAPYIYKNQLYFTSSRDAEKMHAATGTGFTNIHEYVFDGVEKFSGQSVPLSNAINTDGAHEASCILTKDGKTMIFARGNSGAKKGPQDVDLFKTTLQSDGKWSEPVMLAINDPAAWDACPALSLDEKTLYFASNREAEGALGNVDIYKATLDEKGEWSNPVNIGAPINTRGNDMYPSFNKDGKFYFASDGHPSLGSLDIFYVDPKESKIVNMGKPINTSYDDFGLVWKDSLEGYFASNRIDNGAKGDDDIYFVRNTFWDRRAKYYVDGTSFAKSKKNPKAILPNSIIYLLSCKGDTLKSIVSDTEGKFEFELKPDTCYYLAAHSDKYFAMPKSEWTPVKIATVPIKDLDIGDNSIKKKAEVMLVKKERIVIVRNILYDYDKWDIRPDAAVELDTMVMLMNANPEIQIELGSHTDERGSAEYNRVLAQKRAQAAVDYIIAHGISKDRIIAKGYGEDEPAIRNAKTEADHQTNRRTTFKVLNHFSDELEIKSGE	failed
MTRQGWLVPCLSHGKDDQLQDELSELSKAYRKKFQTDLHTKSGDIIDPSGEFLYVYLDEENYRICRQSMVLVSNAPDGLIATTLEPYSDSYTFRQVREQLQAFSGDGGRINYSRNEHSSSYFLTIQASNEFKHVGAVRNTFGQSKDIWKRRMPDASQPLDYHLIAVGCSAFLPEAALDDVESDGAVLEHHHHHH	not failed
MTRSKKFIIMITTVIVIIAFIFLALFAWKIYAERNYNNTNIREAAQFNPLIRETDYYVQVSDPLKKNGKNQVGAYTYMTDGFDKDGVGHTVTFNGMKKLKKGAYLKVSLFLGEAKSYNEISKDKVPHKPLKKLEMQQLEHHHHHH	not failed
MTRSVWLKADSEVGDWETRKRRITAGIEAGVDWVLVDEEDVDRVSELGEINIAAFTNGDVHVMEAEAEDSEADATIVGKDGEGDGTVDLPSDFSGSADLSTLRQNGAAPDGGYVRIFDEDYEAFAEAVAAEADFTIVIGENWQIIPLENLIARVGEETDLIAGVRTAEDARTAYETLELGADGVLLDTDEVDEIRKTVEVRDEMGRESLDLEYAEVTAIEQTGSADRVCIDTGSLMEHDEGMLVGSMARGLFFVHAETAESPYVASRPFRVNAGAVHAYVRTPDGGTKYLSELQSGDEVQIVDANGRTREAIVGRAKIEKRPMFRVQAETEDSDRIETLLQNAETIKVHTQDGRTAVTDLEPGDEILIHHEDTATHFGERIEESIIEK	failed
MTRTFDPIREMDRLLSDVTRTPATVAVPMDLYREGDDYTVAVDLPGVDPASIDIDVDDRTLTIRAERAAKVAKEAQWLSRERAMGTFARQLTLGHGLATDRITAEYTDGVLTLTIPVAETAKPRKVEVRHGSTTIDAMTDQAQVGSGEHQEQ	failed
MTRTRVIAALVMAPVAMCSILFLPTAWLASLTAIIFLWGLWEWMKLSQVEDTLVRTVLLTLNLLLMVLLVWVSAHSLVLFQIATLIGIAWWILALLWLRFLGFCADPNQRTAKIVKVTAGTLAVIPAWSALVLLHSGDKPGSTFPESLHAHLWLLTAQIMIWAADSGAYFSGRLFGKHKLAPQISPNKTVEGLLGGILTGLAVAAGFGLLNGVTMAQFPSLLLVSFVAILASVIGDLFESLLKRHAGIKDSGSMIPGHGGVLDRIDSTLAALPVFALGKDIFGF	failed
MTRTTAVGFDRVTKGYGDVRAVDGLTLALHPGETVALLGPNGAGKSTTLDLLLGLRRPDAGTVHVFGGEPREAVVAGRVGAMLQSGGLMDEVTVAELVRLGCALHPRAYPAADVLARAGLTKIADRRVDKLSGGQAQRVRFALATAGDSDLIVLDEPTTGMDVTARQAFWATMREQADQGRTVLFATHYLEEADAIADRVLVLHRGRLLADGTAAEIKARAGTRRISFDLDGGPDASPDASPDGSRNGTVDEATLRALPHLTALDVSGRTVRIQSADADATVYALYGLGLYPRNLEVAGLGLEQAFVALTAAEEAKQP	failed
MTRVTTTGIPMNNVPSGRHHVSTSRNLFAWFLFALLLLSLYLSYQLVAPFLHTIILSSVFSASIYPFYRRLTSYLGERPVPAALLVLAGVVILVVIPVVVFVIGLIPQAVASVSAITRWLAGHGGLDGLNDAALAPYIAWVRENLPFIDPAQLDVRSSLVQASRAAGQTLLQWGTYVLGNTLLLFGHFLLLLLCMFFMLKDGAWMVQRVRYLSPLRIDQQDRIILELRRVGRSVLVGGLLVAVIQGLLGGVALAAVGIPALFWGTLMAFASLVPVVGTGLVWVPAVCYLLLTSQWESALFLSLWCGIVVVGADSILRPYFMRGGVGMPVFFIFLSILGGVKAFGMLGILDGPLILSFTVVMLSLYGDEYRDILDAGSLAHSRGAECEKGEASEEGPDGT	failed
MTRYLALDAFRGITIALMILVNTPGTWSHVYAPLLHAEWDGATPTDLVFPFFLFIIGSAMFFSFKKSNFSASPEQFRKIIKRGFIMFFIGFMLNVIPFTVNAEDWRIMGILQRIGIAYTVAACLVLTLNRTGVFIASAVILLAYWALLLSMGEGALTIEGNIIRQLDLAVFGANHMYTMRGVAFEPEGLLSTIPAIVNMLLGFELTRYLTSIEDKRSSVIKLTLIGGLAVGFGALWGLVLPINKSLWTPSYVIYSTGFACLLLAAFIWLIDIMKQVKLAEPLLVYGTNPLFVYVLSFLVVTMYLNINVGDVSMYAWLYKQLSGVFTPKLASFIFAFSHVAFFWYVSLKLYQRKIFIKI	failed
MTSGTSVINDKVLQYETFISEVLRRDLQKVLEQRDAVYEKIAQYLQLKNTIQSIQESGSKELKTDVDLGCNFYVQAHVPDASRIYVAVGYGFFVEFTHAEALKFIEKKTNQLTEYTEVLTKDAAKIKANIRMVLEGLRELQGLKDLPEDRRREVF	not failed
MTSGVAPLPGIVSTLSAAAEAVSEALIALDADGGILVVNGAAERVFDRRRDDLIGRSLDVVFGGDFAEAMASNLSAKVDALPPAPGGGRLLRRPGLPPLALHAGFSVTGDHGRPLATIVIRDLSPRADSWLETEERLGGFAASMPGIIFQRVAHRDGSLSYPFLSSGVHAVLGYHPAEMSVALDGCLNAIHWADRESYLRRLRQSAQTLAICSEEFRAITREGAVKWLSGASQPRAMANGDILWDGVLVDVTERKRAELWLEMIMDRAADGIVTINEQGVIESANAAVGTFFGYADRGELIGRRVEILMAEADRRQHTRHMLRYRETGDGALIGAGPRELTGRRRDGTTFALELALSEVRTEGRRIFIAVIRDITQRKETEGALAATRARLQTIADNVPGLVFQRELTAEGVLRFLFVSNGVHEVLGITPEALLADGELFLGAMDPDVRAAFRETLRQSASRLEPMEEDIKLRGRDGEERWLRGWSRPSRREDGSVVWDGVTLDVTDRKRAEDKLTFLAYYDPLTGLGNRSLFIDRFDRARRFAESIQAWVAVLSIGLDRFGMVNATIGHTMGDKVLIAVTRRLQQSLEAGSIVCRAGGDRFLVLLTGLTDRADLREVVATIQDAFVPPIEVEGQQFDIGLTIGGALHPEDGREAETLIMHADAALHRAKGGGGAFQMFTPEMGARAAHLLTIQHKLRRGLERHEFVAYFQPQVDLRSGLITGCEALARWNSPEDGLVPPGKFIGVAEEYGLIDAICGQVLDDSCRWLSTWRARGLPQVPVAVNISGRQFQNARQLVAMVDQALRQSGVDPRLLELELTESSAMSDPENAIAVVNLLRERGVSCAIDDFGTGYSSLSVLKRFPIGKLKIDRSFVMDVTTDPNDAAIVQAIIAMAHALNLRVVAEGVETLDHLAFLREVHCDAVQGFLFARPLPGEDMALMLAGGPPQPNPR	failed
MTSHTLTQGGRTTATIALLLAMLLWSSSFIAMKIALTGFDPMVMIFGRMAIASVIFIAVWRRNFSGVRYRAGDWKLLGFMTMCEPCLYFVFEAYALEYTSASQAGMIVAMMPLSVAVAARFVLKEHMARSAWAGFCLAIAGVVWLSLGGQVTENAPNPMLGNALEVCAMLTATGYVISAKRLSSTYPPLFITAVQSLAGFVFFLPVLALPGVTLPTSLPLTPTLAVLYLGVCITLGAYGLYNYGVSRLPAGQAASYINLIPVLTLIMGRVVLGDELSPSQYLASLLVLAGVVLSQRRAAA	failed
MTSKSEWSNARRIVIILADVLLYNLSIILGFMVKFGREIPSFNFVAYEKSAIYISIFFIFLNLLLGAYIFYNRKISDIIFVTVIGQILMTLTIMIVTFAGRWFTFPRSVLGYSFIIGIIVLSLWRILVYYLYLKVSNERKVVLLGKENQVMRSIQNFMSDKNNKHKVTSVVVSNYYENLKKIIDEIDIVYISSNVDENEKVKLYQLIVKHKKKIFLDTSFENLIMLKPNMMNFEDESIIEVSNFEIQPEENFIKRLFDILVSVCLFVITSPLMLIAAILVKATSPGPVIYKQTRITLDQREFSILKFRTMSATAEAKSGPVLSTSNDSRVTTVGKYLRALRIDELPQLINVIRGDMSIVGPRPERPFFVDQFNQENPNYYLRHNVRAGITGYAQVYGKYASDYNSKLNFDLLYIKNYSLLLDMKILLQTIKILFDKVSSRGLDESEEREELTMDYCKENAIRIYR	failed
MTSLNVLVAVCMAYVILLFGVAFAADRLSSTGRTTWLRSPLVYTLSLSIYCTAWTFYGAVGYAARSGLEFVTIYLGPTLVMIGWWWGLRKLVRVGRSQRVTSIADLISSRYGKSNTLAVCVTLLAVIGVTPYIALQLQSITLSFDIFAEADPVSRPGEGSSAFWVACGLAVFAILFGTRNLDANERHHGVVTAVAIEAVVKLVALLAVGVFVVWGIAGGLGDTLARIDASEIGVWQVDHGRWATITFLAAAAFVCLPRMFQVMVVENDDERHLRTAAWAFPLYLMLMSLFVVPIAVVGLELMPEGANPDLFVLTIPLAEGQETLAMLSFLGGFSSATSMVIVAAMALSTMVSNHIVMPIWLNAQGSGASVSGDVRSVVLYARRVSIAVILALGYFYYRLSGGGAALASIGLIAFAGIAQILPALVGGLFWRGATRTGALVGLTVGFVLWLYTLLLPGMGAGVIAPQVMEHGLFGLSWLRPQALFGIAGMDPMVHSVMWSLSLNTAAFCIASLLSFPSPLERLQGAQFVNVFDHSAGPRGWTGSVAQSEDLMIMSQRIMGAREAQEFFQSEAMAQGSRAYLPEPTPAFLERLERELSGSVGAATAHAMIGQIVGGSSVSVEDLLAVADESAQLLEYSSRLEAKSAELSRTARKLREANEKLTQISLQKDAFLSQISHELRTPMTSIRAFSEILRDTDGLAPVDKTRYAAIIHDEALRLTRLLDDLLDLSVLENGQVTLNMGQGRLVDVLDRAMATALTGTDRPLRVRRHRGAERIVLRTDLDRLSQVFINLITNAQKYCDAADPELSVTVHDVGGRIVVDLIDNGSGIPRDARKMVFEKFARVGAEKAGGAGLGLAICREIMQRLGGDISYLSGQEGGAFRVSLPVGMEIAAQ	failed
MTSLPTPIIGLIVAVFVLVWLVLRTRVHALIAMLAAACIAGLLGGMGIDKTLSVITSGFGTTLGSIGLVIGLGVMMGRLLEVSGAAERIAWSFIKWLGKRREEWALAITGYIVSIPIFVDSAFVILYPVAKALAKSGKRSLLTLGVALAGGLAVTHHTVPPTPGPLGVAGIFNVDIGAMLLTGMALAVPCVIGIVFYAQWLDKRYPDFVPRTLNADEVNAALEQYNKEKEQKDLPSLTLSLLPIVVPIVLIFLKAICSTLATIEGWSGLATHPVVQAINFVGSPVIALAISVLLAVYTLVPRMDKHTTAERLEEGLQSAGIILLVTGAGGALGAILRDSGAGQQLAEQVANLPISPILIPFIVATLVRLIQGSGTVAMITAASISAPILAQIPGINMLLAAQAATMGSLFFGYFNDSLFWVVNRMMGVSDVKQQMVVWSVPTTIAWAIGGTGVALINLLFGSGGSWLDPLLPIVVLAAIMLWVRWQAQGIKDKLVVKD	failed
MTSLTQRSSGLVQRRTEASRNAADKERAAGGGAGSSEDDAQSRRDEQDDDDKGDSKETRLTLMEEVLLLGLKDREGYTSFWNDCISSGLRGCMLIELALRGRLQLEACGMRRKSLLTRKVICKSDAPTGDVLLDEALKHVKETQPPETVQNWIELLSGETWNPLKLHYQLRNVRERLAKNLVEKGVLTTEKQNFLLFDMTTHPLTNNNIKQRLIKKVQEAVLDKWVNDPHRMDRRLLALIYLAHASDVLENAFAPLLDEQYDLATKRVRQLLDLDPEVECLKANTNEVLWAVVAAFTK	failed

Source: a protein production outcome set (Wang et al. 2014)
